# Measured values from the supplement of paper PMC9112550, “Optimization of the antimicrobial peptide Bac7 by deep mutational scanning” (BMC Biology, 2022).
# Tested on: Escherichia coli TOP10
# Experiment: shrunken log2 fold change of peptide-encoding DNA abundance (4.5 h post-induction vs induction); higher = less antimicrobial activity (less host growth inhibition)
# Conditions: time post-induction: 4.5 h; library: site-saturation at positions 5, 18, 19, 20
# 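Also: peptides expressed intracellularly from a pBAD plasmid library in pooled LB shake-flask culture, induced with 0.3% L-arabinose, DNA abundance read by NGS, three biological replicates, DESeq2 with apeglm shrinkage.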
row,Sequence,shrunken log2 fold change
1,RRIRARPPRLPRPRPRPGCNPRP,0.252
2,RRIRQRPPRLPRPRPRPVGGPRP,2.52
3,RRIRFRPPRLPRPRPRPDLNPRP,-0.321
4,RRIRNRPPRLPRPRPRPYKYPRP,-0.369
5,RRIRARPPRLPRPRPRPVLYPRP,0.0232
6,RRIRTRPPRLPRPRPRPGMLPRP,-0.141
7,RRIRERPPRLPRPRPRPANWPRP,0.173
8,RRIRKRPPRLPRPRPRPDDFPRP,-0.00262
9,RRIRTRPPRLPRPRPRPICDPRP,-0.168
10,RRIRYRPPRLPRPRPRPSLWPRP,-0.0532
11,RRIRSRPPRLPRPRPRPFKFPRP,-0.438
12,RRIRDRPPRLPRPRPRPTQDPRP,1.27
13,RRIRARPPRLPRPRPRPGKDPRP,0.36
14,RRIRGRPPRLPRPRPRPTFGPRP,0.404
15,RRIRARPPRLPRPRPRPHPIPRP,0.286
16,RRIRQRPPRLPRPRPRPSGIPRP,0.144
17,RRIRVRPPRLPRPRPRPMMEPRP,0.00705
18,RRIRRRPPRLPRPRPRPYRPPRP,-0.0416
19,RRIRGRPPRLPRPRPRPSMWPRP,0.291
20,RRIRHRPPRLPRPRPRPIGWPRP,0.0927
21,RRIRIRPPRLPRPRPRPYTHPRP,-1.09
22,RRIRCRPPRLPRPRPRPQYYPRP,-0.977
23,RRIRNRPPRLPRPRPRPVPLPRP,-0.539
24,RRIRARPPRLPRPRPRPENQPRP,0.153
25,RRIRVRPPRLPRPRPRPPSIPRP,0.231

row,Sequence,shrunken log2 fold change
1,RRIRERPPRLPRPRPRPERDPRP,-0.0208
2,RRIRGRPPRLPRPRPRPLTQPRP,0.594
3,RRIRMRPPRLPRPRPRPMKIPRP,-0.00146
4,RRIRCRPPRLPRPRPRPKCIPRP,-0.102
5,RRIRMRPPRLPRPRPRPQIQPRP,-0.0708
6,RRIRPRPPRLPRPRPRPHPCPRP,-0.105
7,RRIRTRPPRLPRPRPRPINQPRP,-0.274
8,RRIRARPPRLPRPRPRPQPPPRP,0.715
9,RRIRWRPPRLPRPRPRPLIDPRP,0.00313
10,RRIRSRPPRLPRPRPRPANVPRP,0.218
11,RRIRERPPRLPRPRPRPLDLPRP,-0.357
12,RRIRMRPPRLPRPRPRPQRWPRP,0.637
13,RRIRWRPPRLPRPRPRPKQFPRP,0.207
14,RRIRSRPPRLPRPRPRPPDIPRP,-0.283
15,RRIRHRPPRLPRPRPRPTIMPRP,-0.362
16,RRIRSRPPRLPRPRPRPMDYPRP,0.0691
17,RRIRCRPPRLPRPRPRPTRTPRP,0.406
18,RRIRLRPPRLPRPRPRPLVWPRP,0.193
19,RRIRGRPPRLPRPRPRPDHKPRP,-0.154
20,RRIRERPPRLPRPRPRPTIHPRP,-0.324
21,RRIRYRPPRLPRPRPRPGTRPRP,-0.393
22,RRIRARPPRLPRPRPRPCIHPRP,-0.438
23,RRIRIRPPRLPRPRPRPKYWPRP,-0.678
24,RRIRLRPPRLPRPRPRPWHMPRP,0.041
25,RRIRWRPPRLPRPRPRPWVNPRP,-0.183

row,Sequence,shrunken log2 fold change
1,RRIRIRPPRLPRPRPRPNFRPRP,-0.297
2,RRIRIRPPRLPRPRPRPDKSPRP,-0.0563
3,RRIRYRPPRLPRPRPRPMHKPRP,-0.454
4,RRIRFRPPRLPRPRPRPAIRPRP,-0.32
5,RRIRCRPPRLPRPRPRPNWPPRP,0.0717
6,RRIRERPPRLPRPRPRPSTLPRP,-0.999
7,RRIRWRPPRLPRPRPRPWVIPRP,0.00419
8,RRIRGRPPRLPRPRPRPVIWPRP,0.886
9,RRIRRRPPRLPRPRPRPLTPPRP,0.489
10,RRIRLRPPRLPRPRPRPTIEPRP,0.033
11,RRIRVRPPRLPRPRPRPADAPRP,-0.183
12,RRIRFRPPRLPRPRPRPQRRPRP,-0.177
13,RRIRPRPPRLPRPRPRPATAPRP,0.315
14,RRIRFRPPRLPRPRPRPNLKPRP,-0.553
15,RRIRFRPPRLPRPRPRPDEYPRP,-0.014
16,RRIRDRPPRLPRPRPRPCTEPRP,0.373
17,RRIRVRPPRLPRPRPRPLWLPRP,-0.00434
18,RRIRPRPPRLPRPRPRPVSSPRP,-0.0455
19,RRIRNRPPRLPRPRPRPRQLPRP,0.244
20,RRIRERPPRLPRPRPRPIDYPRP,-0.0881
21,RRIRQRPPRLPRPRPRPVEIPRP,-0.0298
22,RRIRRRPPRLPRPRPRPDTLPRP,0.06
23,RRIRTRPPRLPRPRPRPMGTPRP,-0.0546
24,RRIRHRPPRLPRPRPRPWHWPRP,-0.135
25,RRIRSRPPRLPRPRPRPPSMPRP,0.13
